Our source for the stoichiometry N values is PMC3491091.

In general, stoichiometry N refers to a count of units in the complex or per binding partner.

The test deals with soybean trypsin inhibitor (soybean) (UniProt P01070). Briefly: SPR + ITC + AUC + fluorescence polarisation. In general terms: Fluorescence polarisation rises when a labelled molecule tumbles more slowly, as on binding a larger partner.

For the substance α-chymotrypsin (enzyme), the stoichiometry N was determined as 2.
